Test results published in patent US20220305006.

Target: recombinant sAPPα, human, amino acids 19-613 (UniProt P05067)
Sequence (P05067 19-613): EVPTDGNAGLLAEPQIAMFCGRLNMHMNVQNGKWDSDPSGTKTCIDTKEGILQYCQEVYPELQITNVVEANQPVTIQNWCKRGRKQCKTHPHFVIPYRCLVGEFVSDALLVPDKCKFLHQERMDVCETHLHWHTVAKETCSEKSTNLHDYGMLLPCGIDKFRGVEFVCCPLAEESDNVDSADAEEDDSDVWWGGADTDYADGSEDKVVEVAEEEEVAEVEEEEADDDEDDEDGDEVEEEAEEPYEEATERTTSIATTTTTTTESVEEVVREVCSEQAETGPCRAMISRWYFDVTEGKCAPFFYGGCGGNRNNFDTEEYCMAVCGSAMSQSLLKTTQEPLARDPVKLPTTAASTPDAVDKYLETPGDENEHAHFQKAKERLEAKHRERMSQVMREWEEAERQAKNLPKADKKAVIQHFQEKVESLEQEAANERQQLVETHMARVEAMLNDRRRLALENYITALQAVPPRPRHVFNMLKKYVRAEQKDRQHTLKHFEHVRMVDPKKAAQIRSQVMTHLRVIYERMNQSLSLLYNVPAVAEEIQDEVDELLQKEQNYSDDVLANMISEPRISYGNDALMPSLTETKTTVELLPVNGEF

Sequence of Recombinant Human Cathepsin D (chain, as listed by the source): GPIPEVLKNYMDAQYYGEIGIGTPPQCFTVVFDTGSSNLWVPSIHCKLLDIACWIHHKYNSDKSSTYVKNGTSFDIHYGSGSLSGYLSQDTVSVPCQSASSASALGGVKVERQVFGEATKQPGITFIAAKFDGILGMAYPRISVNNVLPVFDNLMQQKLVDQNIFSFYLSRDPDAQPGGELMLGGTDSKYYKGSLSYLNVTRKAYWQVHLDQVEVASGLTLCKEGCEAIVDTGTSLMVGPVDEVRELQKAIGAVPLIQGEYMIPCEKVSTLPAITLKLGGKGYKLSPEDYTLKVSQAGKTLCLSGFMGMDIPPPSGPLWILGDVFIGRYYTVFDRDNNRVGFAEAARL

## Recombinant Human Cathepsin D
  Cat D activity (fluorogenic substrate): sAPPα elicited no inhibition of Cat D activity
